The values below come from patent US5693476.

Assay [1] deals with GST-syntaxin 1A cytoplasmic domain fusion protein (Syn 1A11, amino acids 4-266), immobilized on glutathione agarose beads (Schistosoma japonicum; rat). Kind of assay: 20S complex on GST-Syn 1A11 beads, ATP and MgCl2, Western blot densitometry.
Assay [2] has the same target. Kind of assay: GST pull-down on glutathione agarose beads, Western blot (anti-α-SNAP), densitometry, FIG. 3.
Assay [3] addresses GST-VAMP (full cytoplasmic domain of VAMP), immobilized on glutathione agarose beads (Schistosoma japonicum; rat). Described as above.
Assay [4] has as its target GST (glutathione-S-transferase) alone, immobilized on glutathione agarose beads (Schistosoma japonicum) [GST: P08515]. Described as above.
The target of assay [5] is GST-SNAP-25, immobilized on glutathione agarose beads (Schistosoma japonicum; mouse). Described as above.
Assay [6] deals with GST-syntaxin 1A (Syn1A11) point mutant 12 (four point mutations) (Schistosoma japonicum; rat). Kind of assay: GST-syntaxin point mutant on glutathione beads, soluble ligand, Western blot densitometry, FIG. 5B. A general note: A western blot detects proteins with antibodies after separation by electrophoresis.
Assay [7] addresses GST-syntaxin 1A (Syn1A11) point mutant M6: A240V, V244A (Schistosoma japonicum; rat). The assay is described as above.
The target in assay [8] is GST-syntaxin 1A (Syn1A11) point mutant M5: I230A, I233A (Schistosoma japonicum; rat). The assay is described as above.
Assay [9] addresses GST-syntaxin 1A (Syn1A11) point mutant M1: R198A, I202A (Schistosoma japonicum; rat). Described as above.
Assay [10] concerns the target GST-syntaxin 1A (Syn1A11) point mutant 13 (four point mutations) (Schistosoma japonicum; rat). The description is as above.
For assay [11], the target named is GST-syntaxin 1A (Syn1A11) point mutant 45 (Schistosoma japonicum; rat). The description is as above.
For assay [12], the target named is GST-syntaxin 1A (Syn1A11) point mutant M2: L205A, I209A (Schistosoma japonicum; rat). Described as above.
The target in assay [13] is GST-syntaxin 1A cytoplasmic domain fusion protein (Syn 1A11, amino acids 4-266), immobilized on glutathione agarose beads (Schistosoma japonicum; rat). Kind of assay: 20S complex on GST-Syn 1A11 beads, ATP and Mg++, Western blot densitometry.

Values joined by “and” are separate entries in the source; they are usually repeats but may differ in a detail not shown here. Identical values can stand only once.

His-tagged α-SNAP (soluble NSF attachment protein), soluble recombinant, sequence (P81125 whole entry): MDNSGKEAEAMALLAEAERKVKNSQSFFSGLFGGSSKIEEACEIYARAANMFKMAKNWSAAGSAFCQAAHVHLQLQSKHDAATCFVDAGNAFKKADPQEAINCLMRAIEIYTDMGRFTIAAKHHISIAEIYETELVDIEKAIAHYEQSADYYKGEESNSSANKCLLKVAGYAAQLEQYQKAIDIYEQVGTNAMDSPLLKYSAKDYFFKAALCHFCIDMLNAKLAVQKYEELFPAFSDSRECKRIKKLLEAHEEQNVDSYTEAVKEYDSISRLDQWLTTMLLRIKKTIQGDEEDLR

For “His-tagged α-SNAP (soluble NSF attachment protein), soluble recombinant (from UniProt P81125)”, the percent dissociated from syntaxin following ATP hydrolysis by NSF in assay [1] is 70% and 90%. For the same substance, the densitometry pixel value in assay [2] stood at 1830 pixel value; in assay [3], 8 pixel value; in assay [4], 0 pixel value; in assay [5], 33 pixel value; in [6], 23 pixel value; in assay [7], 633 pixel value. For the same substance, the densitometry pixel value in [8] turned out to be 25 pixel value; in assay [9], 53 pixel value; in [10], 15 pixel value; in assay [11], 7 pixel value; in assay [12] it was 36 pixel value.

On to “VAMP (vesicle-associated membrane protein; VAMP 2), soluble recombinant”, for which the percent dissociated from syntaxin following ATP hydrolysis by NSF in assay [1] is 80% and 90%. The densitometry pixel value in assay [6] was 0 pixel value; in [7] it was 0 pixel value; in assay [8], 0 pixel value; in assay [9], 37 pixel value; in assay [10] it was 0 pixel value; in [11], 0 pixel value. In addition, the densitometry pixel value in assay [12] was 17 pixel value.

As to “SNAP-25 (synaptosomal-associated protein of 25 kDa), soluble recombinant”, in assay [13], the percent remaining associated with the GST-syntaxin beads is 90%. For the same substance, the densitometry pixel value in assay [6] turned out to be 361 pixel value; in [7] it was 875 pixel value; in [8], 824 pixel value; in [9], 586 pixel value; in [10] it was 143 pixel value; in assay [11], 640 pixel value. For the same substance, the densitometry pixel value in assay [12] was determined as 672 pixel value.
